# According to patent publication US20140087995A1 (published 2014):
# Numbered stars: 1 amine (or outer) side, 2 acyl side, 3 side chain; on linkers, the order of the positions; unused ones are H or OH. Bridge positions count the residues as written; N and C are the ends. Side chains are listed from the residue outwards. Ends that are not written are not given here. * marks the point of attachment. C20 diacid = O=C(O)CCCCCCCCCCCCCCCCCCC(=O)*; γGlu = O=C(O)[C@H](CCC(=O)[*:2])N[*:1]; AEEA = NCCOCCOCC(=O)O
# T1: rat calcitonin receptor (rat, UniProt P32214 25-516)
# T1 construct: whole, on cells; Cell membranes of transiently transfected BHK tk'ts 13 cells (Assay VIII); also called rCTR; rCT
# T1 sequence (looked up): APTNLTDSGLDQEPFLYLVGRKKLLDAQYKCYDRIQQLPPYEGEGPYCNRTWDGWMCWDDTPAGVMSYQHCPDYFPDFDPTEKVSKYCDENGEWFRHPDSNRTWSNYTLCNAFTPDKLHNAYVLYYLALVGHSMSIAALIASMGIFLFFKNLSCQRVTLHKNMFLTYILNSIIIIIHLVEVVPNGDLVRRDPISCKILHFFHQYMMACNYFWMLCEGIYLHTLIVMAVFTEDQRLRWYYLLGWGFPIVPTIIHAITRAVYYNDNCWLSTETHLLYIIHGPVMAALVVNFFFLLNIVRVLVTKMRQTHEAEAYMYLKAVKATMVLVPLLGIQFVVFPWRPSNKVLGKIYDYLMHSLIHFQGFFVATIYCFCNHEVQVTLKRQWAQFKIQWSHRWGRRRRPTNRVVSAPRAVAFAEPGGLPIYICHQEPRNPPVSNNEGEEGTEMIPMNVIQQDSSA
# T2: rat amylin receptor (rat calcitonin receptor + rat RAMP 3) (rat, UniProt P32214 25-516; Q9JJ73 23-147)
# T2 construct: whole, on cells; Cell membranes of transiently transfected BHK tk'ts 13 cells (Assay VI); also called rAmylin-R; rat amylin 3(a) receptor
# T2 sequence (looked up) 1: T1 sequence (looked up)
# T2 sequence (looked up) 2: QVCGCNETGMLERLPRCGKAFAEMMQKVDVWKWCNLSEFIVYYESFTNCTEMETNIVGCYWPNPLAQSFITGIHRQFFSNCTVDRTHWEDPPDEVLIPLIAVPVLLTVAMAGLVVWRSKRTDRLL
# T3: human calcitonin receptor (human, UniProt P30988 25-474)
# T3 construct: whole, on cells; Cell membranes of a stably transfected BHK cell line (Assay VII); also called hCTR; hCT
# T3 sequence (looked up): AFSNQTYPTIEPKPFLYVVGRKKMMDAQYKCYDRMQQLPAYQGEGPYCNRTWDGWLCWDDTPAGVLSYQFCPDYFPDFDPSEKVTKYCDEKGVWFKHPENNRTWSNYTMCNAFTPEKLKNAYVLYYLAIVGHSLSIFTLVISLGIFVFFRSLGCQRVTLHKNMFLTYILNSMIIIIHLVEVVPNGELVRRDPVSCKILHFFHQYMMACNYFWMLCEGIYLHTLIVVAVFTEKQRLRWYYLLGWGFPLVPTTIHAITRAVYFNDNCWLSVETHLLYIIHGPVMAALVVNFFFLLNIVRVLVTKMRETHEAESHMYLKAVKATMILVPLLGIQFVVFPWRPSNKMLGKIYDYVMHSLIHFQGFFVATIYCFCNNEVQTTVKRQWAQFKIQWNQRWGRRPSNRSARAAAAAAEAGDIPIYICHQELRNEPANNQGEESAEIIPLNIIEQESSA
# B1: N^ε1-[(4S)-4-carboxy-4-(19-carboxynonadecanoylamino)butanoyl]-[Arg17,Pro21,Pro27]-h-amylin (peptide)
# peptide: K([γGlu-C20 diacid])CNTATCATQRLANFLRHSSPNFGAIPSSTNVGSNTY-NH2
# modifications: disulfide 2-7; N-terminus assumed
# SMILES: CC[C@H](C)[C@H](NC(=O)[C@H](C)NC(=O)CNC(=O)[C@H](Cc1ccccc1)NC(=O)[C@H](CC(N)=O)NC(=O)[C@@H]1CCCN1C(=O)[C@H](CO)NC(=O)[C@H](CO)NC(=O)[C@H](Cc1c[nH]cn1)NC(=O)[C@H](CCCNC(=N)N)NC(=O)[C@H](CC(C)C)NC(=O)[C@H](Cc1ccccc1)NC(=O)[C@H](CC(N)=O)NC(=O)[C@H](C)NC(=O)[C@H](CC(C)C)NC(=O)[C@H](CCCNC(=N)N)NC(=O)[C@H](CCC(N)=O)NC(=O)[C@@H](NC(=O)[C@H](C)NC(=O)[C@@H]1CSSC[C@H](NC(=O)[C@@H](N)CCCCNC(=O)CC[C@H](NC(=O)CCCCCCCCCCCCCCCCCCC(=O)O)C(=O)O)C(=O)N[C@@H](CC(N)=O)C(=O)N[C@@H]([C@@H](C)O)C(=O)N[C@@H](C)C(=O)N[C@@H]([C@@H](C)O)C(=O)N1)[C@@H](C)O)C(=O)N1CCC[C@H]1C(=O)N[C@@H](CO)C(=O)N[C@@H](CO)C(=O)N[C@H](C(=O)N[C@@H](CC(N)=O)C(=O)N[C@H](C(=O)NCC(=O)N[C@@H](CO)C(=O)N[C@@H](CC(N)=O)C(=O)N[C@H](C(=O)N[C@@H](Cc1ccc(O)cc1)C(N)=O)[C@@H](C)O)C(C)C)[C@@H](C)O
# notes: Acylated analogue of human amylin; also called compound 48
# B2: N^ε1-[2-[2-[2-(19-carboxynonadecanoylamino)ethoxy]ethoxy]acetyl]-[Arg17,Pro21,Pro27]-h-amylin (peptide)
# peptide: K([AEEA-C20 diacid])CNTATCATQRLANFLRHSSPNFGAIPSSTNVGSNTY-NH2
# modifications: disulfide 2-7; N-terminus assumed
# SMILES: CC[C@H](C)[C@H](NC(=O)[C@H](C)NC(=O)CNC(=O)[C@H](Cc1ccccc1)NC(=O)[C@H](CC(N)=O)NC(=O)[C@@H]1CCCN1C(=O)[C@H](CO)NC(=O)[C@H](CO)NC(=O)[C@H](Cc1c[nH]cn1)NC(=O)[C@H](CCCNC(=N)N)NC(=O)[C@H](CC(C)C)NC(=O)[C@H](Cc1ccccc1)NC(=O)[C@H](CC(N)=O)NC(=O)[C@H](C)NC(=O)[C@H](CC(C)C)NC(=O)[C@H](CCCNC(=N)N)NC(=O)[C@H](CCC(N)=O)NC(=O)[C@@H](NC(=O)[C@H](C)NC(=O)[C@@H]1CSSC[C@H](NC(=O)[C@@H](N)CCCCNC(=O)COCCOCCNC(=O)CCCCCCCCCCCCCCCCCCC(=O)O)C(=O)N[C@@H](CC(N)=O)C(=O)N[C@@H]([C@@H](C)O)C(=O)N[C@@H](C)C(=O)N[C@@H]([C@@H](C)O)C(=O)N1)[C@@H](C)O)C(=O)N1CCC[C@H]1C(=O)N[C@@H](CO)C(=O)N[C@@H](CO)C(=O)N[C@H](C(=O)N[C@@H](CC(N)=O)C(=O)N[C@H](C(=O)NCC(=O)N[C@@H](CO)C(=O)N[C@@H](CC(N)=O)C(=O)N[C@H](C(=O)N[C@@H](Cc1ccc(O)cc1)C(N)=O)[C@@H](C)O)C(C)C)[C@@H](C)O
# notes: Acylated analogue of human amylin; also called compound 43
# B3: N^-1-[(4S)-4-carboxy-4-(19-carboxynonadecanoylamino)butanoyl]-Gly[Arg1,Arg17,Pro21,Pro27,His35]-h-amylin (peptide)
# peptide: {C20 diacid-γGlu}-GRCNTATCATQRLANFLRHSSPNFGAIPSSTNVGSHTY-NH2
# modifications: disulfide 3-8
# SMILES: CC[C@H](C)[C@H](NC(=O)[C@H](C)NC(=O)CNC(=O)[C@H](Cc1ccccc1)NC(=O)[C@H](CC(N)=O)NC(=O)[C@@H]1CCCN1C(=O)[C@H](CO)NC(=O)[C@H](CO)NC(=O)[C@H](Cc1c[nH]cn1)NC(=O)[C@H](CCCNC(=N)N)NC(=O)[C@H](CC(C)C)NC(=O)[C@H](Cc1ccccc1)NC(=O)[C@H](CC(N)=O)NC(=O)[C@H](C)NC(=O)[C@H](CC(C)C)NC(=O)[C@H](CCCNC(=N)N)NC(=O)[C@H](CCC(N)=O)NC(=O)[C@@H](NC(=O)[C@H](C)NC(=O)[C@@H]1CSSC[C@H](NC(=O)[C@H](CCCNC(=N)N)NC(=O)CNC(=O)CC[C@H](NC(=O)CCCCCCCCCCCCCCCCCCC(=O)O)C(=O)O)C(=O)N[C@@H](CC(N)=O)C(=O)N[C@@H]([C@@H](C)O)C(=O)N[C@@H](C)C(=O)N[C@@H]([C@@H](C)O)C(=O)N1)[C@@H](C)O)C(=O)N1CCC[C@H]1C(=O)N[C@@H](CO)C(=O)N[C@@H](CO)C(=O)N[C@H](C(=O)N[C@@H](CC(N)=O)C(=O)N[C@H](C(=O)NCC(=O)N[C@@H](CO)C(=O)N[C@@H](Cc1c[nH]cn1)C(=O)N[C@H](C(=O)N[C@@H](Cc1ccc(O)cc1)C(N)=O)[C@@H](C)O)C(C)C)[C@@H](C)O
# notes: Acylated analogue of human amylin, extended by one residue at the N-terminus; also called compound 47
# B4: N^ε-[2-[2-[2-[[(4S)-4-carboxy-4-(19-carboxynonadecanoylamino)butanoyl]amino]ethoxy]ethoxy]acetyl]Lys[Arg1,Arg17,Pro21,Pro27,His35]-h-amylin (peptide)
# peptide: K([AEEA-γGlu-C20 diacid])RCNTATCATQRLANFLRHSSPNFGAIPSSTNVGSHTY-NH2
# modifications: disulfide 3-8; N-terminus assumed
# SMILES: CC[C@H](C)[C@H](NC(=O)[C@H](C)NC(=O)CNC(=O)[C@H](Cc1ccccc1)NC(=O)[C@H](CC(N)=O)NC(=O)[C@@H]1CCCN1C(=O)[C@H](CO)NC(=O)[C@H](CO)NC(=O)[C@H](Cc1c[nH]cn1)NC(=O)[C@H](CCCNC(=N)N)NC(=O)[C@H](CC(C)C)NC(=O)[C@H](Cc1ccccc1)NC(=O)[C@H](CC(N)=O)NC(=O)[C@H](C)NC(=O)[C@H](CC(C)C)NC(=O)[C@H](CCCNC(=N)N)NC(=O)[C@H](CCC(N)=O)NC(=O)[C@@H](NC(=O)[C@H](C)NC(=O)[C@@H]1CSSC[C@H](NC(=O)[C@H](CCCNC(=N)N)NC(=O)[C@@H](N)CCCCNC(=O)COCCOCCNC(=O)CC[C@H](NC(=O)CCCCCCCCCCCCCCCCCCC(=O)O)C(=O)O)C(=O)N[C@@H](CC(N)=O)C(=O)N[C@@H]([C@@H](C)O)C(=O)N[C@@H](C)C(=O)N[C@@H]([C@@H](C)O)C(=O)N1)[C@@H](C)O)C(=O)N1CCC[C@H]1C(=O)N[C@@H](CO)C(=O)N[C@@H](CO)C(=O)N[C@H](C(=O)N[C@@H](CC(N)=O)C(=O)N[C@H](C(=O)NCC(=O)N[C@@H](CO)C(=O)N[C@@H](Cc1c[nH]cn1)C(=O)N[C@H](C(=O)N[C@@H](Cc1ccc(O)cc1)C(N)=O)[C@@H](C)O)C(C)C)[C@@H](C)O
# notes: Acylated analogue of human amylin, extended by one residue at the N-terminus; also called compound 45
# B5: N^-1-[(4S)-4-carboxy-4-(19-carboxynonadecanoylamino)butanoyl]-Gly[Arg1,Arg17,Pro21,Pro27]-h-amylin (peptide)
# peptide: {C20 diacid-γGlu}-GRCNTATCATQRLANFLRHSSPNFGAIPSSTNVGSNTY-NH2
# modifications: disulfide 3-8
# SMILES: CC[C@H](C)[C@H](NC(=O)[C@H](C)NC(=O)CNC(=O)[C@H](Cc1ccccc1)NC(=O)[C@H](CC(N)=O)NC(=O)[C@@H]1CCCN1C(=O)[C@H](CO)NC(=O)[C@H](CO)NC(=O)[C@H](Cc1c[nH]cn1)NC(=O)[C@H](CCCNC(=N)N)NC(=O)[C@H](CC(C)C)NC(=O)[C@H](Cc1ccccc1)NC(=O)[C@H](CC(N)=O)NC(=O)[C@H](C)NC(=O)[C@H](CC(C)C)NC(=O)[C@H](CCCNC(=N)N)NC(=O)[C@H](CCC(N)=O)NC(=O)[C@@H](NC(=O)[C@H](C)NC(=O)[C@@H]1CSSC[C@H](NC(=O)[C@H](CCCNC(=N)N)NC(=O)CNC(=O)CC[C@H](NC(=O)CCCCCCCCCCCCCCCCCCC(=O)O)C(=O)O)C(=O)N[C@@H](CC(N)=O)C(=O)N[C@@H]([C@@H](C)O)C(=O)N[C@@H](C)C(=O)N[C@@H]([C@@H](C)O)C(=O)N1)[C@@H](C)O)C(=O)N1CCC[C@H]1C(=O)N[C@@H](CO)C(=O)N[C@@H](CO)C(=O)N[C@H](C(=O)N[C@@H](CC(N)=O)C(=O)N[C@H](C(=O)NCC(=O)N[C@@H](CO)C(=O)N[C@@H](CC(N)=O)C(=O)N[C@H](C(=O)N[C@@H](Cc1ccc(O)cc1)C(N)=O)[C@@H](C)O)C(C)C)[C@@H](C)O
# notes: Acylated analogue of human amylin, extended by one residue at the N-terminus; also called compound 46
# Biological target: T1, rat calcitonin receptor
# Assay: ratio IC50 rat calcitonin receptor / IC50 rat amylin receptor
row,Binder,Ratio rCT/rAmylin binding
1,B1,201
2,B2,69.1
3,B3,84.3
4,B4,67.1
5,B5,142

# Biological target: T1, rat calcitonin receptor
# Assay: SPA competition vs 125I-calcitonin, membranes with rat CTR (Assay VIII)
row,Binder,IC50 [nM]
1,B1,112
2,B2,7.6
3,B3,17.1
4,B4,41.8
5,B5,46.8

# Biological target: T2, rat amylin receptor (rat calcitonin …)
# Assay: SPA competition vs 125I-rat amylin, membranes with rat CTR + rat RAMP3 (Assay VI)
row,Binder,IC50 [nM]
1,B1,0.558
2,B2,0.11
3,B3,0.203
4,B4,0.623
5,B5,0.33

# Biological target: T3, human calcitonin receptor
# Assay: ratio IC50 human calcitonin receptor / IC50 human amylin receptor
# In short: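 Competition binding by SPA uses membrane preparations (35 ng/μL final) in pH 7.4 Hepes buffer with 1 mM CaCl2 and 5 mM MgCl₂. Incubation lasts 120 min at 25° C, and IC₅₀ comes from one-site fitting.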
row,Binder,Ratio hCT/hAmylin binding
1,B1,69.7
2,B2,34.7
3,B3,44.9
4,B4,26.8
5,B5,48.9
